For experiment [1], the target named is mu opioid receptor (MOR) of wild type mouse brain (mouse (endogenous in brain), UniProt P42866 1-398).
Experiment [2] deals with human mu opioid receptor (MOR), stably expressed in HEK293 cells with GloSensor (human, UniProt P35372 1-400).

Where no end group is shown, it is not given here. [ ]: non-standard residue; d: D form. The star is where a group is joined. NMeF = CN[C@@H](Cc1ccccc1)C(=O)O; NHCH2CH2OH = OCCN*

human mu opioid receptor (MOR), stably expressed in HEK293 cells with GloSensor, sequence (P35372 whole entry): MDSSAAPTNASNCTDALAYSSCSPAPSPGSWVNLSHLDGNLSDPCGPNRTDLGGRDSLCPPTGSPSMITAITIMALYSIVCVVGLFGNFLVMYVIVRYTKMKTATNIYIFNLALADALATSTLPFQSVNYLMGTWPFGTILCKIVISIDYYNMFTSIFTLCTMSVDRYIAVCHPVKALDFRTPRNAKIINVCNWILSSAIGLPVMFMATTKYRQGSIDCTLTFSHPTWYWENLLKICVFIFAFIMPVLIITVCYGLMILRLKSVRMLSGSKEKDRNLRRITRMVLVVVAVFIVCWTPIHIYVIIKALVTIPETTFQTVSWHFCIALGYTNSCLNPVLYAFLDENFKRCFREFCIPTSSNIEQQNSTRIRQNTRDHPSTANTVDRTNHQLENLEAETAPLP
mu opioid receptor (MOR) of wild type mouse brain, sequence (P42866 whole entry): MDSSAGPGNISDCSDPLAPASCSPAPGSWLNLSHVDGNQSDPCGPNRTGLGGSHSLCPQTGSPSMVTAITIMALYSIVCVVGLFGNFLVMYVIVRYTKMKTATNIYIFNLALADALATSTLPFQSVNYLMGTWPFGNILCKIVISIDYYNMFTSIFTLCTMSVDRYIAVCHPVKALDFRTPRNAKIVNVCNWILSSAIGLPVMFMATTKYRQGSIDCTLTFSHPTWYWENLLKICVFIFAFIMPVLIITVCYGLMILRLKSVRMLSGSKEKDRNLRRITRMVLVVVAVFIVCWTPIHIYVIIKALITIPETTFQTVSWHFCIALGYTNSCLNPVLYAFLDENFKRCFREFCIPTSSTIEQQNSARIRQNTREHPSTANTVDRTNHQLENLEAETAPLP

The Ki is a dissociation constant, usually derived from enzyme kinetics or from competition with a known ligand. Read a high Ki as a looser hold on the target. For Y[dA]G[NMeF][NHCH2CH2OH] [DAMGO ([D-Ala2, N-MePhe4, Gly-ol]-enkephalin)], the Ki is 3.1 nM in experiment [1] and 9.6 nM in experiment [2].

For the origin of these results see article PMC5583172 (2017).
